The text below walks through data of publication PMC4833857.

The target in the experiment is Kluyveromyces marxianus Tor (KmTor), full-length (Kluyveromyces marxianus). The experiment in a line: SEC-MALS; 100 µl of 1 mg/ml KmTor-Lst8 complex on Superdex S200 10/300, 50 mM Tris pH 8.8 (23 °C), 300 mM NaCl, 0.3% CHAPS, 1 mM TCEP.
Sequence of Kluyveromyces marxianus Tor (KmTor), full-length (Kluyveromyces marxianus) (main, as listed by the source): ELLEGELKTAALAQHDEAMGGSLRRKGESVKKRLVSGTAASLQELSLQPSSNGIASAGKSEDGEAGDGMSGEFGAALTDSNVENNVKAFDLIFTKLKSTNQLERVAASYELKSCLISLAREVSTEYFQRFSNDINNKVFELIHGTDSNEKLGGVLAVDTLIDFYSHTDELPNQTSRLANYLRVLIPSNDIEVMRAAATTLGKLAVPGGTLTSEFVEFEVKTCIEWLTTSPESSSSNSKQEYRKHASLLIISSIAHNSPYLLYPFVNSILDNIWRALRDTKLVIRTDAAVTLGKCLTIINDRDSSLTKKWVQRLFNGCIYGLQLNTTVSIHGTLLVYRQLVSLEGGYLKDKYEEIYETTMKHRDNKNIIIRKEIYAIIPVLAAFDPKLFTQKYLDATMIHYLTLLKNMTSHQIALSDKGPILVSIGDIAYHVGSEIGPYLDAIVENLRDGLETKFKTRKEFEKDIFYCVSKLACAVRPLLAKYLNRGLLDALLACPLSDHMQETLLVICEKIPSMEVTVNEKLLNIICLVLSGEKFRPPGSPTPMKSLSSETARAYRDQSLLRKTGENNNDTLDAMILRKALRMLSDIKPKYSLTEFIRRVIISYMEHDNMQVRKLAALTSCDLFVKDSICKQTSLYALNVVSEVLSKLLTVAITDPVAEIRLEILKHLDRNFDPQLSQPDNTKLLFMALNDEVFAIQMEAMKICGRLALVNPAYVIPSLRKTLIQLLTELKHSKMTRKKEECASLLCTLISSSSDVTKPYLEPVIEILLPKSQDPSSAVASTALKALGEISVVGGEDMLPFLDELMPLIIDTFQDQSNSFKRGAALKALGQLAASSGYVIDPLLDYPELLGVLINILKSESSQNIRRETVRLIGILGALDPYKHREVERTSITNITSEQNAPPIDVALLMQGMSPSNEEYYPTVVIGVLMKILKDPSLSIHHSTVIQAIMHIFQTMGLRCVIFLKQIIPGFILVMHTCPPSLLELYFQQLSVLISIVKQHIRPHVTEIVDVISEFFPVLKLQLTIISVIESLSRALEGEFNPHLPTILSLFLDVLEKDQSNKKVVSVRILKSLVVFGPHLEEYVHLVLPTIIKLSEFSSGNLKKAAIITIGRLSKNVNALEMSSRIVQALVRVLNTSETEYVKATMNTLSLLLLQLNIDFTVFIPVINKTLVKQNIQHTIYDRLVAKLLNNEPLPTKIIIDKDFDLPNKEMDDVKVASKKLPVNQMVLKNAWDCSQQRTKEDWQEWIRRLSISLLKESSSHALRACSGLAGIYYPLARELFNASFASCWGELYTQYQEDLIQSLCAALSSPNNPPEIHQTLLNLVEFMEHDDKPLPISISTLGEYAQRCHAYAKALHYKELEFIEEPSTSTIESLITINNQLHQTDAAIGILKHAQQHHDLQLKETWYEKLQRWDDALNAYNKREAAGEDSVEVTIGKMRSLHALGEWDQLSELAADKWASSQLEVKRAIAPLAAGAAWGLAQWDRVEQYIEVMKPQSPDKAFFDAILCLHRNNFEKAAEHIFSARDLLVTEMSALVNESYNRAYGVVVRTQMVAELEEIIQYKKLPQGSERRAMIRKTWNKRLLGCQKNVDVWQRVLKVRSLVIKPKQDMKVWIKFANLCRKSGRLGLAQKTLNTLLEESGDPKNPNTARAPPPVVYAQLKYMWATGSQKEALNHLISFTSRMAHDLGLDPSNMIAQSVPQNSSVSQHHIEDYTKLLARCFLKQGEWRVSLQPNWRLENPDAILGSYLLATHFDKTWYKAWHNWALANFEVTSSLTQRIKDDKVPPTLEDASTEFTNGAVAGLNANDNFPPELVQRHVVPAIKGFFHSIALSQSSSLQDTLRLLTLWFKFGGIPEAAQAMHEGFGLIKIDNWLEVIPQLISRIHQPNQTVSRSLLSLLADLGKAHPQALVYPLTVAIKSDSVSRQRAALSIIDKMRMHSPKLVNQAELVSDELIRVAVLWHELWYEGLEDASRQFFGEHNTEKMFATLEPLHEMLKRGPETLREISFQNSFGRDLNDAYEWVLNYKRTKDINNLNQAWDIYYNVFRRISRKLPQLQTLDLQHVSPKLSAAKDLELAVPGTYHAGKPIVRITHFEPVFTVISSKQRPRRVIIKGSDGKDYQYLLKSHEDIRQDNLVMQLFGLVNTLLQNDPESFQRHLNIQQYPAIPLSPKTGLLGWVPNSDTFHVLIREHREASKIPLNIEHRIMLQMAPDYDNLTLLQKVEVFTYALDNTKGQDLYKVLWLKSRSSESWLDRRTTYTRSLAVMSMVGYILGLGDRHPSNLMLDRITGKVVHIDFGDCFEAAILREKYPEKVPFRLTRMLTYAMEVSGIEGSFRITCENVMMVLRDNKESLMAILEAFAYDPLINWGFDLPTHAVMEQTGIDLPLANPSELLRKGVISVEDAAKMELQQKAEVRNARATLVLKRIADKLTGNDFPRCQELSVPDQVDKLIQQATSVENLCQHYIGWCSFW

Regarding “Kluyveromyces marxianus Lst8 (KmLst8), full-length (natural protein)”, the stoichiometry N came to 1.
With “Kluyveromyces marxianus Tor (KmTor), full-length” the figure was 2.

As usually defined, the stoichiometry N is a count of units in the complex or per binding partner.
